Test results as given in patent US20250092135A1 (NANJING LEADS BIOLABS, published 2025).
Values belong to the binder of their own block, whether it stands above or below them.

Legend:
[1] = molecular target: T1, human CD3 protein endogenously expressed on Jurkat cells (human, UniProt P07766 23-207); experiment: flow cytometry, Jurkat cells (endogenous CD3), PE anti-human IgG Fc secondary, MFI; EC50 table under the plot, unit from the axis Conc.(nM)
T1 construct: whole, on cells; The whole CD3 complex is on the cells; also called CD3 on Jurkat cells; CD3 on Jurkat/NFAT-luc cells
Experimental: (§1) (3) Whether the anti-CD3/anti-MUC16 bispecific antibodies in the present invention could bind to the CD3 protein endogenously expressed on Jurkat cells (Cell Bank of Type Culture Collection Committee of the Chinese Academy of Sciences, Cat #SCSP-513) was determined by cell binding experiments. Detection was performed using the flow cytometry described above, with the following differences: the dilution gradient for the test bispecific antibody was: a maximum concentration of 200 nM, starting from a second concentration of 100 nM, 5-fold dilution, 10 points; the bispecific antibodies were added to Jurkat cells, and the cells were incubated at 4° C. for 30 min. The cells were washed twice with PBS, and then fluorescent secondary antibody R-PE-conjugated AffiniPure Goat Anti-Human IgG, Fcγ Fragment Specific was added. The cells were incubated at 4° C. for 30 min. The cells were washed twice with PBS and then resuspended, and finally, fluorescence signals were detected using a BD Accuri C5 (BD Bioscience) flow cytometer.

[2] = molecular target: T2, rhesus monkey MUC16 protein (ECT_TM RhMuc16) on 293T cells (rhesus monkey); experiment: flow cytometry, 293T/rhesus MUC16 cells as printed on the sheet and in the legend (the example, paragraph 611, speaks of cynomolgus MUC16), PE anti-human IgG Fc secondary, MFI; EC50 table under the plot, unit from the axis Conc.(nM); curve still rising at the top concentration of 100 nM
T2 chain: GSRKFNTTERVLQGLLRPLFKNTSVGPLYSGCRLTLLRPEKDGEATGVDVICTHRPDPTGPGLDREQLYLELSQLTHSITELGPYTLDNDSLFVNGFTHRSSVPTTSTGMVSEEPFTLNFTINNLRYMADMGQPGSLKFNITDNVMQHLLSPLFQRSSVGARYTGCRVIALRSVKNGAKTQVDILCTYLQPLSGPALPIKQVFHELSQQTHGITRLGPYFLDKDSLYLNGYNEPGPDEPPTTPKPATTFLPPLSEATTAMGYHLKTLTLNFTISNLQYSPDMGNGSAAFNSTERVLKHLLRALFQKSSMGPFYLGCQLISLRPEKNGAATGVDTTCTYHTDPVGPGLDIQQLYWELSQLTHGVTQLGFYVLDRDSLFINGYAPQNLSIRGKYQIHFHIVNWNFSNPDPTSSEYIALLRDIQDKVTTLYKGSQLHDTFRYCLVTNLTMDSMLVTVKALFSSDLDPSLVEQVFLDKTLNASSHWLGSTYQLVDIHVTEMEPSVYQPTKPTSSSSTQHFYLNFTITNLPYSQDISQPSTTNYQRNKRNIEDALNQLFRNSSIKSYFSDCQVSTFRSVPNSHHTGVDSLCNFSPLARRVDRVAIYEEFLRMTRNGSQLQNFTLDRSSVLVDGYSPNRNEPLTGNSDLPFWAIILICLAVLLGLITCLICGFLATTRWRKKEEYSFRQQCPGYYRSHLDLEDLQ
Experimental: (§2) Referring to the flow cytometry described above, the serially diluted test bispecific antibody (at an initial concentration of 100 nM, 5-fold dilution, 9 points) was added to the cells, and the plate was incubated at 4° C. for 30 min. The cells were washed twice with PBS, and then fluorescent secondary antibody R-PE-conjugated AffiniPure Goat Anti-Human IgG, Fcγ Fragment Specific was added. The cells were incubated at 4° C. for 30 min. The cells were washed twice with PBS and then resuspended, and finally, fluorescence signals were detected using a BD Accuri C5 (BD Bioscience) flow cytometer.

[3] = molecular target: T3, human MUC16 protein endogenously expressed on cells (human, UniProt Q8WXI7 1-14507); experiment: flow cytometry, OVCAR3 cells (endogenous human MUC16), PE anti-human IgG Fc secondary, MFI; EC50 table under the plot, unit from the axis Conc.(nM)
T3 construct: whole, on cells; also called MUC16 on OVCAR3 cells; MUC16 in ovarian carcinoma tissue
Experimental: (1) Whether the anti-CD3/anti-MUC16 bispecific antibodies in the present invention could bind to the MUC16 protein endogenously expressed on human ovarian carcinoma cells (OVCAR3) (Cell Bank of Type Culture Collection Committee of the Chinese Academy of Sciences, Cat #TCHu228) was determined by cell binding experiments.
The experiments were performed using flow cytometry. OVCAR3 cells were digested, centrifuged and collected. The cells were resuspended in a PBS solution, and seeded into a 96-well plate (Corning, Cat #3799) at 1×10⁵ cells/well. The 96-well plate was centrifuged and then the supernatant was discarded. 100 μL of the serially diluted test bispecific antibody (at a maximum concentration of 200 nM, 5-fold dilution from 100 nM, 9 concentration points in total) was added to the OVCAR3 cells. The plate was incubated at 4° C. for 30 min and centrifuged (1000 rpm, 5 min), and then the supernatant was discarded. 100 μL of PBS solution was added to each well, and the cells were washed twice. 100 μL of fluorescent secondary antibody R-PE-conjugated AffiniPure Goat Anti-Human IgG, Fcγ Fragment Specific (Jackson ImmunoResearch, Cat #109-116-098) diluted in a ratio of 1:200 was then added. The cells were incubated at 4° C. for 30 min. After the cells were washed twice with the PBS solution, 100 μL of PBS solution was added to each well to resuspend the cells, and finally, fluorescence signals were detected using a BD Accuri C5 (BD Bioscience) flow cytometer according to the manufacturer's instructions. REGN4018 was used as a positive control.

[4] = molecular target: T2, rhesus monkey MUC16 protein (ECT_TM …); experiment: flow cytometry, 293T/rhesus MUC16 cells as printed on the sheet and in the legend (the example, paragraph 611, speaks of cynomolgus MUC16), PE anti-human IgG Fc secondary, MFI; EC50 table under the plot, unit from the axis Conc.(nM); curve still rising at the top concentration of 100 nM, the value lies beyond the range shown
Experimental: as §2

[5] = molecular target: T1, human CD3 protein endogenously …; experiment: flow cytometry, Jurkat cells (endogenous CD3), PE anti-human IgG Fc secondary, MFI; EC50 table under the plot, unit from the axis Conc.(nM); curve still rising at the top concentration
Experimental: as §1

T1 sequence (P07766 23-207): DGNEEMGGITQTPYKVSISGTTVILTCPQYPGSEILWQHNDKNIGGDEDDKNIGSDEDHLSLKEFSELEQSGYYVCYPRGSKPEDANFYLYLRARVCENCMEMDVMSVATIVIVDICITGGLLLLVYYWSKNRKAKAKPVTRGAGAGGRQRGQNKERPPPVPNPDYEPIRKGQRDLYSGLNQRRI

EC50 [1]: 14 nM
EC50 [2]: 48.4 nM
EC50 [3]: 2.78 nM
B1: anti-CD3/MUC16 bispecific antibody 2MCH7-23L2 (bispecific antibody, human IgG1, kappa, L234A L235A)
heavy 1: not shown
heavy 2: EVQLVESGGGLVQPGGSLKLSCAASGFTFSTYAMNWVRQAPGKGLEWVGRIRSKYNNYATYYADSVKDRFTISRDDSKNTLYLQMNSLKTEDTAVYYCTRHGNFGNSYVSWFAYWGQGTTVTVSSGGGGSGGGGSGGGGSQAVVTQEPSLTVSPGGTVTLTCRSSTGAVTTSNYANWVQQKPGQAPRGLIGGTNKRAPGVPARFSGSLLGGKAALTLSGAQPEDEAEYFCALWYSNLWVFGGGTKLTVLGEPKSSDKTHTCPPCPAPEAAGGPSVFLFPPKPKDTLMISRTPEVTCVVVAVSHEDPEVKFNWYVDGVEVHNAKTKPREEQYNSTYRVVSVLTVLHQDWLNGKEYKCKVSNKALAAPIEKTISKAKGQPREPQVCTLPPSRDELTKNQVSLSCAVKGFYPSDIAVEWESNGQPENNYKTTPPVLDSDGSFFLVSKLTVDKSRWQQGNVFSCSVMHEALHNHYTQKSLSLSPGK
light: EIVLTQSPATLSLSPGERATLSCRASSSVIYMSWYQQKPGQAPRLLIYGTSTLASGIPARFSGSGSGTDFTLTISSLEPEDFAVYYCQQWSSNPFTFGQGTKLEIKRTVAAPSVFIFPPSDEQLKSGTASVVCLLNNFYPREAKVQWKVDNALQSGNSQESVTEQDSKDSTYSLSSTLTLSKADYEKHKVYACEVTHQGLSSPVTKSFNRGEC
notes: 2MCH7-KIH-Knob (VH-CH1-VH-CH1-Fc) + 23L2ScFv-Hole + two light chains MCL4 LC

EC50 [4]: 182 nM
EC50 [5]: 70.7 nM
EC50 [3]: 17.2 nM
B2: anti-CD3/MUC16 bispecific antibody MCH7-23L2 (bispecific antibody, human IgG1, kappa, L234A L235A)
heavy 1: B1 heavy 2
heavy 2: not shown
light: B1 light
notes: 23L2ScFv-Hole + MCH7-KIH-Knob + one light chain MCL4 LC
